Measurements as given in the supplement of paper PMC9112550, “Optimization of the antimicrobial peptide Bac7 by deep mutational scanning” (BMC Biology, 2022).

Each sequence was assayed on Escherichia coli TOP10 (assay: shrunken log2 fold change of peptide-encoding DNA abundance (4.5 h post-induction vs induction); higher = less antimicrobial activity (less host growth inhibition)). Conditions: time post-induction: 4.5 h; library: site-saturation at positions 5, 18, 19, 20.
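Note: peptides expressed intracellularly from a pBAD plasmid library in pooled LB shake-flask culture, induced with 0.3% L-arabinose, DNA abundance read by NGS, three biological replicates, DESeq2 with apeglm shrinkage.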

| Sequence | shrunken log2 fold change |
| --- | --- |
| RRIRSRPPRLPRPRPRPVVAPRP | 0.608 |
| RRIRYRPPRLPRPRPRPNWAPRP | -0.267 |
| RRIRQRPPRLPRPRPRPFFAPRP | 0.414 |
| RRIRQRPPRLPRPRPRPYQCPRP | -0.263 |
| RRIRSRPPRLPRPRPRPLVRPRP | 0.0873 |
| RRIRIRPPRLPRPRPRPGSSPRP | -0.486 |
| RRIRTRPPRLPRPRPRPKLIPRP | -0.0765 |
| RRIRIRPPRLPRPRPRPDMIPRP | -0.0965 |
| RRIRRRPPRLPRPRPRPWCAPRP | 0.419 |
| RRIRYRPPRLPRPRPRPQGTPRP | 0.034 |
| RRIRHRPPRLPRPRPRPQRGPRP | -0.0034 |
| RRIRMRPPRLPRPRPRPPHTPRP | 0.824 |
| RRIRFRPPRLPRPRPRPWMIPRP | -0.00776 |
| RRIRKRPPRLPRPRPRPVREPRP | 0.817 |
| RRIRKRPPRLPRPRPRPHWVPRP | -0.0562 |
| RRIRARPPRLPRPRPRPTAAPRP | 1.05 |
| RRIRYRPPRLPRPRPRPTMDPRP | -0.67 |
| RRIRIRPPRLPRPRPRPVLEPRP | 0.0298 |
| RRIRLRPPRLPRPRPRPEAPPRP | 0.462 |
| RRIRWRPPRLPRPRPRPMWAPRP | 0.385 |
| RRIRMRPPRLPRPRPRPENSPRP | 2.07 |
| RRIRERPPRLPRPRPRPGGVPRP | 0.0164 |
| RRIRRRPPRLPRPRPRPTSIPRP | -0.107 |
| RRIRSRPPRLPRPRPRPHINPRP | -0.607 |
| RRIRVRPPRLPRPRPRPRHLPRP | -0.222 |

| Sequence | shrunken log2 fold change |
| --- | --- |
| RRIRSRPPRLPRPRPRPIHKPRP | -0.165 |
| RRIRHRPPRLPRPRPRPSFPPRP | -0.207 |
| RRIRSRPPRLPRPRPRPEAKPRP | 0.401 |
| RRIRSRPPRLPRPRPRPFGLPRP | -0.0988 |
| RRIRARPPRLPRPRPRPHQAPRP | -0.0279 |
| RRIRLRPPRLPRPRPRPQVTPRP | 0.0952 |
| RRIRRRPPRLPRPRPRPFIVPRP | -0.0553 |
| RRIRSRPPRLPRPRPRPELQPRP | 0.239 |
| RRIRVRPPRLPRPRPRPKGSPRP | 0.0616 |
| RRIRFRPPRLPRPRPRPMCQPRP | -0.123 |
| RRIRERPPRLPRPRPRPWSMPRP | -0.707 |
| RRIRARPPRLPRPRPRPSEIPRP | -0.00993 |
| RRIRYRPPRLPRPRPRPQCTPRP | -0.292 |
| RRIRGRPPRLPRPRPRPNFWPRP | 0.544 |
| RRIRKRPPRLPRPRPRPIELPRP | -0.025 |
| RRIRHRPPRLPRPRPRPIPRPRP | -0.0447 |
| RRIRHRPPRLPRPRPRPCVCPRP | 0.0978 |
| RRIRKRPPRLPRPRPRPFGGPRP | -0.043 |
| RRIRDRPPRLPRPRPRPCTQPRP | 0.0408 |
| RRIRFRPPRLPRPRPRPNCFPRP | -0.193 |
| RRIRQRPPRLPRPRPRPHTIPRP | -0.412 |
| RRIRLRPPRLPRPRPRPVDEPRP | -0.0573 |
| RRIRMRPPRLPRPRPRPSVMPRP | -0.194 |
| RRIRYRPPRLPRPRPRPLKWPRP | -0.258 |
| RRIRRRPPRLPRPRPRPSYWPRP | -0.0367 |

| Sequence | shrunken log2 fold change |
| --- | --- |
| RRIRTRPPRLPRPRPRPMYQPRP | -0.416 |
| RRIRFRPPRLPRPRPRPDCSPRP | 0.0229 |
| RRIRDRPPRLPRPRPRPSNTPRP | -0.75 |
| RRIRARPPRLPRPRPRPWQEPRP | -0.0122 |
| RRIRERPPRLPRPRPRPWGWPRP | 0.173 |
| RRIRRRPPRLPRPRPRPCDTPRP | -0.092 |
| RRIRVRPPRLPRPRPRPIWTPRP | -0.0382 |
| RRIRIRPPRLPRPRPRPKYIPRP | -0.992 |
| RRIRCRPPRLPRPRPRPVFQPRP | -0.0498 |
| RRIRQRPPRLPRPRPRPKNKPRP | -0.29 |
| RRIRSRPPRLPRPRPRPTQEPRP | 0.342 |
| RRIRSRPPRLPRPRPRPTSMPRP | -0.187 |
| RRIRKRPPRLPRPRPRPWWNPRP | 0.0316 |
| RRIRERPPRLPRPRPRPSESPRP | -0.577 |
| RRIRHRPPRLPRPRPRPNCVPRP | -0.0146 |
| RRIRRRPPRLPRPRPRPHLTPRP | -0.132 |
| RRIRARPPRLPRPRPRPYNEPRP | -0.524 |
| RRIRSRPPRLPRPRPRPPPCPRP | 0.408 |
| RRIRGRPPRLPRPRPRPIDMPRP | -0.0207 |
| RRIRYRPPRLPRPRPRPSLKPRP | -0.316 |
| RRIRNRPPRLPRPRPRPKIKPRP | -0.256 |
| RRIRCRPPRLPRPRPRPNCRPRP | -0.00263 |
| RRIRTRPPRLPRPRPRPSYMPRP | -1.28 |
| RRIRDRPPRLPRPRPRPHMWPRP | 0.0299 |
| RRIRWRPPRLPRPRPRPIADPRP | 0.0247 |

| Sequence | shrunken log2 fold change |
| --- | --- |
| RRIRRRPPRLPRPRPRPGFEPRP | 0.293 |
| RRIRDRPPRLPRPRPRPPAMPRP | 0.87 |
| RRIRRRPPRLPRPRPRPASWPRP | 0.337 |
| RRIRKRPPRLPRPRPRPRWTPRP | 0.347 |
| RRIRKRPPRLPRPRPRPPVTPRP | 0.39 |
| RRIRVRPPRLPRPRPRPNQQPRP | 0.0476 |
| RRIRKRPPRLPRPRPRPHLVPRP | 0.0297 |
| RRIRPRPPRLPRPRPRPQKIPRP | -0.267 |
| RRIRKRPPRLPRPRPRPDWYPRP | -0.149 |
| RRIRDRPPRLPRPRPRPANEPRP | 0.0557 |
| RRIRFRPPRLPRPRPRPKIGPRP | -0.0769 |
| RRIRLRPPRLPRPRPRPSKEPRP | -0.4 |
| RRIRERPPRLPRPRPRPNAIPRP | 0.185 |
| RRIRRRPPRLPRPRPRPYRNPRP | 0.0114 |
| RRIRHRPPRLPRPRPRPGKCPRP | -0.00911 |
| RRIRWRPPRLPRPRPRPADMPRP | 0.0185 |
| RRIRTRPPRLPRPRPRPASCPRP | 0.066 |
| RRIRWRPPRLPRPRPRPVCLPRP | 0.311 |
| RRIRARPPRLPRPRPRPQGLPRP | 0.208 |
| RRIRARPPRLPRPRPRPNCSPRP | 0.179 |
| RRIRRRPPRLPRPRPRPQHFPRP | 0.256 |
| RRIRRRPPRLPRPRPRPSRKPRP | 0.129 |
| RRIRRRPPRLPRPRPRPNAYPRP | 0.0409 |
| RRIRTRPPRLPRPRPRPDWSPRP | 0.163 |
| RRIRKRPPRLPRPRPRPYEEPRP | -0.0817 |

| Sequence | shrunken log2 fold change |
| --- | --- |
| RRIRIRPPRLPRPRPRPVYAPRP | -0.517 |
| RRIRERPPRLPRPRPRPAMLPRP | -0.155 |
| RRIRERPPRLPRPRPRPVVLPRP | -0.0819 |
| RRIRYRPPRLPRPRPRPYGVPRP | -0.00992 |
| RRIRCRPPRLPRPRPRPSNHPRP | -0.718 |
| RRIRPRPPRLPRPRPRPQCDPRP | -0.254 |
| RRIRLRPPRLPRPRPRPFPMPRP | -0.312 |
| RRIRQRPPRLPRPRPRPWNMPRP | -0.086 |
| RRIRQRPPRLPRPRPRPRPAPRP | 0.185 |
| RRIRWRPPRLPRPRPRPTFRPRP | -0.0799 |
| RRIRSRPPRLPRPRPRPMCGPRP | -0.145 |
| RRIRFRPPRLPRPRPRPEIRPRP | 0.0106 |
| RRIRARPPRLPRPRPRPWLYPRP | -0.0506 |
| RRIRKRPPRLPRPRPRPSAQPRP | 1.84 |
| RRIRIRPPRLPRPRPRPGSRPRP | -0.0379 |
| RRIRWRPPRLPRPRPRPDLKPRP | 0.12 |
| RRIRDRPPRLPRPRPRPGEEPRP | 0.0844 |
| RRIRRRPPRLPRPRPRPNDGPRP | 0.0979 |
| RRIRTRPPRLPRPRPRPSEQPRP | 0.0636 |
| RRIRMRPPRLPRPRPRPVDFPRP | 0.159 |
| RRIRARPPRLPRPRPRPRGTPRP | 0.448 |
| RRIRQRPPRLPRPRPRPTHNPRP | 0.357 |
| RRIRFRPPRLPRPRPRPVERPRP | 0.0308 |
| RRIRSRPPRLPRPRPRPGTVPRP | -0.0347 |
| RRIRGRPPRLPRPRPRPDHEPRP | 0.858 |

| Sequence | shrunken log2 fold change |
| --- | --- |
| RRIRLRPPRLPRPRPRPPPWPRP | 0.892 |
| RRIRSRPPRLPRPRPRPHFAPRP | 0.0285 |
| RRIRLRPPRLPRPRPRPYGLPRP | -0.0893 |
| RRIRARPPRLPRPRPRPERPPRP | 0.556 |
| RRIRGRPPRLPRPRPRPVSLPRP | 0.321 |
| RRIRQRPPRLPRPRPRPLWPPRP | 0.227 |
| RRIRFRPPRLPRPRPRPNEPPRP | -0.00783 |
| RRIRSRPPRLPRPRPRPADAPRP | 0.0403 |
| RRIRYRPPRLPRPRPRPGNEPRP | -0.229 |
| RRIRERPPRLPRPRPRPDPNPRP | 0.0422 |
| RRIRWRPPRLPRPRPRPFIEPRP | -0.441 |
| RRIRKRPPRLPRPRPRPYVVPRP | -0.226 |
| RRIRVRPPRLPRPRPRPHSVPRP | -0.177 |
| RRIRVRPPRLPRPRPRPSFFPRP | -0.2 |
| RRIRMRPPRLPRPRPRPYLSPRP | -0.0214 |
| RRIRRRPPRLPRPRPRPFKRPRP | -2.89e-05 |
| RRIRRRPPRLPRPRPRPIAYPRP | 0.0129 |
| RRIRFRPPRLPRPRPRPVMNPRP | -0.548 |
| RRIRFRPPRLPRPRPRPFQYPRP | -0.127 |
| RRIRTRPPRLPRPRPRPHSWPRP | -0.0571 |
| RRIRTRPPRLPRPRPRPQCYPRP | -0.256 |
| RRIRWRPPRLPRPRPRPPIIPRP | -0.151 |
| RRIRPRPPRLPRPRPRPHMRPRP | 0.0614 |
| RRIRWRPPRLPRPRPRPKAAPRP | 0.338 |
| RRIRQRPPRLPRPRPRPRAIPRP | 0.109 |
